This is an account of results in patent US20080076129A1, “Method of Detecting an Increased Susceptibility to Breast Cancer” (priority 2000, published 2008).

In one data set the target is T1, COMT (Homo sapiens, UniProt P21964).
T1 construct: made in house; host or cells: Escherichia coli DH5αF′Iq
T1 sequence (P21964 51-271): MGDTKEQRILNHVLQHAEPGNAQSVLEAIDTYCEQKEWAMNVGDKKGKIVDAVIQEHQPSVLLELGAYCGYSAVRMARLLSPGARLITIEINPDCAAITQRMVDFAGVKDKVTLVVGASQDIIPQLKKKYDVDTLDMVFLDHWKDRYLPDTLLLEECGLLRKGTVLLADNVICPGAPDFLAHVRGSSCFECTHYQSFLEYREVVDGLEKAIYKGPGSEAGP
As to the kind of experiment: Assay of COMT activity, purified recombinant His-COMT, methylation of catechol estrogens. Format: biochemical. The conditions noted are these: substrate 2-100 μM. The procedure: Assay of COMT Activity. Purified recombinant His-COMT (300 pmol) was reconstituted 0.5 ml of 100 mM KPO4, pH 7.4, containing 5 mM MgCl2, 10 mM β-mercaptoethanol, and 200 μM SAM. Reactions were initiated by adding varying concentrations of each individual catechol estrogen (2, 3, 6, 9, 12, 15, 20, 40, 60, 80, and 100 μM). Blanks contained all compounds except SAM. Reactions proceeded for 10 min at 37° C. with gentle shaking and then were terminated by addition of 2 ml CH2Cl2. To determine COMT activity in breast cancer cells, ZR-75 and MCF-7 cells were harvested at confluency and homogenized in 100 mM KPO4, pH 7.4, 5 mM MgCl2, 10 mM β-mercaptoethanol. Following ultracentrifugation of the cell homogenate (110,000 g, 30 min, 4° C.), the supernatant cytosol was divided into aliquots for ICELISA, protein determination (BCA assay; Pierce, Rockford, Ill.), and COMT assay. The latter was carried out in the presence of 200 μM SAM and 100 μM catechol estrogen for 20 min at 37° C. and then terminated by addition of CH2Cl2. The concentration of endogenous catechol and methoxy estrogens was below the limit of detection by gas chromatography/mass spectrometry.
Extraction and Gas Chromatography/Mass Spectrometry Analysis of Catechol Estrogens. A deuterated internal standard (100 μl of 8 mg/liter E2-d4 in methanol) was added and all estrogens extracted into the CH2Cl2 by vortex mixing for 30 s. 1.5 ml of the CH2Cl2 fraction was evaporated to dryness under air and volatile TMS derivatives prepared by heating the residue with 100 μl of 50% NO-bis(trimethylsilyl)trifluoroacetamide/1% trimethyl chlorosilane in acetonitrile at 56° C. for 30 min. The TMS derivatives of the estrogen metabolites were separated by gas chromatography (H-P 5890, Hewlett-Packard, Wilmington, Del.) on a 5% phenyl methyl silicone stationary phase fused silica capillary column (30 m×0.2 mm×0.5 μm film, HP5; Hewlett-Packard). Helium carrier gas was used at a flow of 1 ml/min. The injector was operated at 250° C., with 2 μl injected in the splitless mode, with a purge (60 ml/min helium) time of 0.6 min. The oven temperature was held at 180° C. for 0.5 min, then raised at 6° C./min to 250° C. where it was held for 17 min, then raised to 300° C. at 8° C./min to give a total run time of 35.42 min. This program permitted adequate separation of a wide range of estrogen metabolites. Retention times (in min) for the TMS derivatives were E1 20.13, E2 and E2-d4 21.89, 4-MeOE1 23.52, 2-MeO-3-MeOE1 (underivatized) 23.75, 2-OH-3-MeOE1 24.87, 2-MeOE1 25.2, 4-MeOE2 25.78, 2-OHE1 and 2-MeO-3-MeOE2 26.19, 2-OH-3-MeOE2 26.9, 2-MeOE2 27.18, 4-OHE1 27.27, 6α-OHE2 27.29, 2-OHE2 27.44, 4-OHE2 28.06, E3 28.38. The EI mass spectrometer (H-P 5970) was operated in the selected ion monitoring mode from 18 to 30 min. Ions monitored were TMS-E1 342, 257, 343; TMS2-E2-d4 420, 421, 287; TMS2-E2 416, 417, 285; TMS-4-MeOE1, TMS-2-OH-3-MeOE1, TMS-2-MeOE1 and TMS-3-MeO-4-OHE1 372, 373, 342; 2-MeO-3-MeOE1 314, 315, 229; TMS2-4-MeOE2, TMS2-2-OH-3-MeOE2, TMS2-2-MeOE2 and TMS2-3-MeO-4-OHE2 446, 447, 315; TMS2-2-OHE1 430, 431, 432; TMS-2-MeO-3-MeOE2 388, 389, 257; TMS2-4-OHE1 430, 431, 345; TMS2-6α-OHE2 414, 283, 309; TMS3-2-OHE2 and TMS3-4-OHE2 504, 505, 373; TMS3-E3 504, 505, 311 (FIG. 7). The instrument was calibrated by simultaneous preparation of an 11-point calibration over the range 0-22 nmol/tube of each compound. Sensitivity was determined to be between 0.02 and 0.04 nmol/tube (400-800 fmol on column) for the various compounds. […] Absolute extraction efficiency for E2, 2-OH-E2 and 4-OH-E2 at 3.5 nmol/tube was 119, 96, and 107% assessed by comparison to injections of spiked solvent samples onto the gas chromatograph. Internal standard added prior to extraction compensated for deviation from 100% recovery for all investigated compounds.
Statistical Analysis. […]

Data set [1] has as its system DNA. As to conditions: cited from earlier work.
The test system of the next data set is renal DNA. As to conditions: in vivo; cited from earlier work.
The next data set relates to Syrian hamster. The conditions noted are these: in vivo; cited from earlier work.
Data set [2] relates to DNA. As to conditions: cited from earlier work. The source holds these as a separate data set.
The subject of data set [3] is CYP1B1. Put plainly: Assay of CYP1B1 E2 hydroxylation activity. Format: biochemical, human. The conditions noted are these: for 2-OH-Estradiol kcat: E2 2-hydroxylation; for 4-OH-Estradiol kcat: E2 4-hydroxylation; for 16a-OH-Esrradiol kcat: E2 16α-hydroxylation. The procedure: (§1) Assay of CYP1B1 E2 Hydroxylation Activity. Purified CYP1B1 (200 pmol) was reconstituted with a 2-fold molar amount of recombinant rat NADPH-P450 reductase (400 pmol), purified as previously described, and 60 μg of L-α-dilauroyl-sn-glycero-3-phosphocholine in the presence of sodium cholate (0.005%, w/v) in 0.4 ml of 100 mM potassium phosphate buffer, pH 7.4, containing varying concentrations of E2 (2, 3, 6, 9, 12, 15, 20, 40, 60, 80, and 100 μM) and 1 mM ascorbate. An NADPH-generating system consisting of 5 mM glucose 6-phosphate and 0.5 U of glucose-6-phosphate dehydrogenase/ml was added and reactions initiated by adding NADP+ to a final concentration of 0.5 mM. Reactions proceeded for 10 min at 37° C. with gentle shaking and then were terminated by addition of 2 ml CH2Cl2.
(§2) Extraction and Gas Chromatography/Mass Spectrometry Analysis of E2 and Metabolites. A deuterated internal standard (100 μl of 8 mg/liter E2-2, 4, 16, 16-d4 in methanol; CDN Isotopes, Pointe-Claire, Quebec) was added and all steroids extracted into CH2Cl2 by vortex mixing for 30 s. 1.5 ml of the CH2Cl2 fraction was evaporated to dryness under air and volatile TMS derivatives prepared by heating the residue with 100 μl of 50% NO-bis(trimethylsilyl)trifluoroacetamide/1% trimethyl chlorosilane in acetonitrile at 56° C. for 30 min. The TMS derivatives of E2 and its metabolites were separated by gas chromatography (H-P 5890, Hewlett-Packard, Wilmington, Del.) on a 5% phenyl methyl silicone stationary phase fused silica capillary column (30 m×0.2 mm×0.5 μm film, HP5; Hewlett-Packard). Helium carrier gas was used at a flow of 1 ml/min. The injector was operated at 250° C., with 2 μl injected in the splitless mode, with a purge (60 ml/min helium) time of 0.6 min. The oven temperature was held at 189° C. for 0.5 min, then raised at 6° C./min to 250° C. where it was held for 17 min, then raised to 300° C. at 8° C./min to give a total run time of 35.42 min. […] The EI mass spectrometer (H-P 5970) was operated in the selected ion monitoring mode from 18 to 34 min. Ions monitored were TMS2-E2-d4 420, 288, 330; TMS2-E2 416, 285, 326; TMS3-2-OH-E2 504, 373; TMS3-4-OH-E2 504, 373, 325; TMS3-16α-OH-E2 345, 311, 504. The instrument was calibrated by simultaneous preparation of an 11-point calibration over the range […]/tube of each compound. […] Internal standard added prior to extraction compensated for deviation from 100% recovery.
(§3) Statistical Analysis. Kinetic parameters (Km and kcat) were determined by nonlinear regression analysis using the computer program GraphPad PRISM (San Diego, Calif.).

Data set [4] addresses T2, CYP1B1 (Homo sapiens, UniProt Q16678, L432V).
T2 construct: made in house; host or cells: Escherichia coli DH5αF′Iq
T2 sequence (Q16678 26-543 L432V): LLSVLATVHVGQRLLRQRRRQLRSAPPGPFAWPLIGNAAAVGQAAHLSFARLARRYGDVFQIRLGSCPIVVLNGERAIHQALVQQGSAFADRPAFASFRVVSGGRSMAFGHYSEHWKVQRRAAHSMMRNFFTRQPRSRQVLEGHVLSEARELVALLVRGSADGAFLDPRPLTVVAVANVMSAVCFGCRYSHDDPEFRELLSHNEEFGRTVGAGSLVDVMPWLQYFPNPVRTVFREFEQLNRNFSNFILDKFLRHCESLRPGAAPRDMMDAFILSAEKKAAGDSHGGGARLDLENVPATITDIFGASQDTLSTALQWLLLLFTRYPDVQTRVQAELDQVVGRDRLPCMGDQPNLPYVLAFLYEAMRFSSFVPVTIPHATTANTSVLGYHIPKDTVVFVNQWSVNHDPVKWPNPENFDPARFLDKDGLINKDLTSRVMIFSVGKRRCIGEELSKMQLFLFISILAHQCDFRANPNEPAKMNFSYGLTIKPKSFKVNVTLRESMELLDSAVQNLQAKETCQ
Put plainly: Assay of CYP1B1 E2 hydroxylation activity. It is filed as biochemical. The conditions noted are these: text and FIG. 4; read-out: 2-OH-E2 hydroxylation Km. The procedure: as §1, §2, §3

Take `C[C@]12CC[C@@H]3c4cc(O)c(O)cc4CC[C@H]3[C@@H]1CC[C@@H]2O` [2-OHE2]: the “pattern of rates of methylation” value at COMT is listed as “typical hyperbolic patterns”. For the same molecule, the DNA single-strand breaks result in the data set on DNA [1] is “negligible effect”. In addition, the “levels of the oxidized base 8-hydroxy-deoxyguanosine” value in the data set on renal DNA is listed as “did not cause oxidative DNA damage”.

In the case of `C[C@]12CC[C@@H]3c4ccc(O)c(O)c4CC[C@H]3[C@@H]1CC[C@@H]2O` [4-OHE2], the “induction of renal cancer” value with Syrian hamster is “induced renal cancer”. Also, the “pattern of rates of methylation” value at COMT is recorded as “sigmoid curve pattern”. For the same molecule, in the data set on DNA [1], the DNA single-strand breaks result is reported as “induced DNA single-strand breaks”. Besides, in the data set with renal DNA, the “levels of the oxidized base 8-hydroxy-deoxyguanosine” value is “significantly increased”.

As to `C[C@]12CC[C@@H]3C4=C(CC[C@H]3[C@@H]1CCC2=O)C(=O)C(=O)C=C4` [E1-3,4Q], the “levels of depurinating DNA adducts versus E2-2,3Q and E1-2,3Q” value with DNA [2] is “two to three orders of magnitude higher”.

As for `C[C@]12CC[C@@H]3C4=C(CC[C@H]3[C@@H]1CC[C@@H]2O)C(=O)C(=O)C=C4` [E2-3,4Q], the “levels of depurinating DNA adducts versus E2-2,3Q and E1-2,3Q” value with DNA [2] is on record as “two to three orders of magnitude higher”.

B1: Wild type: purified recombinant His-tagged CYP1B1 with 48Arg, 119Ala, 432Val, 453Asn (protein)
chain: HHHHHHLLSVLATVHVGQRLLRQRRRQLRSAPPGPFAWPLIGNAAAVGQAAHLSFARLARRYGDVFQIRLGSCPIVVLNGERAIHQALVQQGSAFADRPAFASFRVVSGGRSMAFGHYSEHWKVQRRAAHSMMRNFFTRQPRSRQVLEGHVLSEARELVALLVRGSADGAFLDPRPLTVVAVANVMSAVCFGCRYSHDDPEFRELLSHNEEFGRTVGAGSLVDVMPWLQYFPNPVRTVFREFEQLNRNFSNFILDKFLRHCESLRPGAAPRDMMDAFILSAEKKAAGDSHGGGARLDLENVPATITDIFGASQDTLSTALQWLLLLFTRYPDVQTRVQAELDQVVGRDRLPCMGDQPNLPYVLAFLYEAMRFSSFVPVTIPHATTANTSVLGYHIPKDTVVFVNQWSVNHDPLKWPNPENFDPARFLDKDGLINKDLTSRVMIFSVGKRRCIGEELSKMQLFLFISILAHQCDFRANPNEPAKMNFSYGLTIKPKSFKVNVTLRESMELLDSAVQNLQAKETCQ
In the data set with CYP1B1 [3], B1 gave a 2-OH-Estradiol kcat of 0.0317 ± 0.0017 s⁻¹, a 4-OH-Estradiol kcat of 0.0733 ± 0.0067 s⁻¹ and a 16a-OH-Esrradiol kcat of 0.005 ± 0.00033 s⁻¹. In the data set with CYP1B1 [3] (listed as Wild type CYP1B1), this molecule came in with a 2-OH-Estradiol kcat of 0.0317 ± 0.0017 s⁻¹, a 4-OH-Estradiol kcat of 0.0733 ± 0.0067 s⁻¹ and a 16a-OH-Esrradiol kcat of 0.005 ± 0.00033 s⁻¹. For the same molecule, in the data set on CYP1B1 [3] (listed as wild type CYP1B1), the 2-OH-Estradiol kcat was 0.0317 ± 0.0017 s⁻¹, the 4-OH-Estradiol kcat worked out at 0.0733 ± 0.0067 s⁻¹ and the 16a-OH-Esrradiol kcat came to 0.005 ± 0.00033 s⁻¹. The Km (usually the concentration of substrate that gives half-maximal velocity) in the data set with CYP1B1 [4] was determined as 34 ± 4 µM.
